Measured values taken from patent US20230212279A1, “TREATMENT AND PREVENTION OF DISEASE CAUSED BY TYPE IV COLLAGEN DYSFUNCTION” (Singapore Health Services PTE, LTD., priority 2020, published 2023).
Entries after “also recorded” stand apart in the source; their conditions may differ.

Key:
IL-11Rα = target: T1, IL-11Rα (Homo sapiens, UniProt Q14626); details: IL-11 binding to IL-11Rα alone, low affinity; cited from earlier work
T1 sequence (Q14626 23-422): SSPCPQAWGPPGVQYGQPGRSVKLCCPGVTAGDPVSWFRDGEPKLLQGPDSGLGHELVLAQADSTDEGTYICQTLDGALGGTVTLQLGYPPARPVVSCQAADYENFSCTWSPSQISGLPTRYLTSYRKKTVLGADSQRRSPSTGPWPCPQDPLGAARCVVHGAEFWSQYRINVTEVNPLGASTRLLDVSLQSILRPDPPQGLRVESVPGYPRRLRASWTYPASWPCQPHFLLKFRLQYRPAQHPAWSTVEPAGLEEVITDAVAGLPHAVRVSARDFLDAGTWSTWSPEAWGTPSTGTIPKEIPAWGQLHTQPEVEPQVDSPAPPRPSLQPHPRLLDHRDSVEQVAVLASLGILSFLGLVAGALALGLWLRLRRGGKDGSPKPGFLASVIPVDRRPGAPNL

[1] = system: kidneys of Col4a3-/- mice; experiment: Treatment study: Wilms' Tumor 1 immunohistochemistry (podocytes); assay type: in vivo, mouse; details: 20 mg/kg IP 2x/week from 6 weeks for 2.5 weeks, vs IgG
Protocol: (§1) Col4a3^−/− (Col4a3^tm1Dec) mice were purchased from The Jackson Laboratory (https://www.jax.org/strain/002908). Mice were housed in temperatures of 21-24° C. with 40-70% humidity on a 12 h light/12 h dark cycle and provided with food and water ad libitum. For treatment study, Col4a3^−/− were administered 20 mg/kg of anti-IL11 (X203) or IgG isotype control (11E10) by intraperitoneal (IP) injection starting from 6 weeks of age twice a week for 2.5 weeks; wild-type littermates were used as controls. Mice were sacrificed for blood and kidney collection when they were 8.5-week-old. For lifespan study, IgG/X203 was administered to 6-week-old Col4a3^−/− (2×/week) until death ensued.
Kidneys were fixed in 10% neutral-buffered formalin (NBF), paraffinized, cut into 7 μm sections, incubated with primary antibodies overnight and visualized using an ImmPRESS HRP anti-rabbit IgG polymer detection kit (MP-7401, Vector Laboratories) with ImmPACT DAB Peroxidase Substrate (SK-4105, Vector Laboratories). Quantification of WT^+ve cells were performed in a blinded fashion from 4 images (200× field)/kidney (n=3-4 kidneys/group).

[2] = system: kidneys of Col4a3-/- mice; experiment: Treatment study: kidney fibrosis (renal collagen content, Masson's Trichrome staining); assay type: in vivo, mouse; details: 20 mg/kg IP 2x/week from 6 weeks for 2.5 weeks; vs IgG
Protocol: as §1
Kidney tissues were fixed for 48 hours at RT in 10% neutral-buffered formalin (NBF), dehydrated, embedded in paraffin, and sectioned at 7 μm. Transverse kidney sections were then stained with Masson's Trichrome according to standard protocol. Images of the sections were captured by light microscopy and blue-stained fibrotic areas were semi-quantitatively determined with Image-J software (color deconvolution-Masson Trichrome) from the whole kidney area (100× field, n=4 kidneys/group). Treatment and genotypes were not disclosed to investigators performing the histology and generating semi-quantitative readouts.

Col4a3-/- mice [3] = experiment: Treatment study: renal function by colorimetric assays (BUN, creatinine, urinary albumin:creatinine); assay type: in vivo, mouse; details: 20 mg/kg 2x/week from week 6; study end 8.5 weeks of age; vs IgG
Protocol: as §1
The levels of blood urea nitrogen (BUN) and creatinine in mouse serum were measured using Urea Assay Kit (ab83362, Abcam) and Creatinine Assay Kit (ab65340, Abcam), respectively. Urine albumin and creatinine levels were measured using Mouse Albumin ELISA kit (ab108792, Abcam) and Creatinine Assay Kit (ab204537, Abcam), respectively. All ELISA and colorimetric assays were performed according to the manufacturer's protocol.

Col4a3-/- mice [4] = experiment: Lifespan study in Col4a3-/- mice (Example 2); assay type: in vivo, mouse; details: 20 mg/kg 2x/week from 6 weeks of age until death
Protocol: as §1
Statistical analyses were performed using GraphPad Prism software (version 8). Statistical significance between control and experimental groups were analysed by twosided Student's t tests or by one-way ANOVA as indicated in the figure legends. P values were corrected for multiple testing according to Tukey when several conditions were compared to each other within one experiment. Comparison analysis for two parameters from two different groups were performed by two-way ANOVA. Survival curves were analyzed by Gehan-Breslow-Wilcoxon test. The criterion for statistical significance was P<0.05.

[5] = system: kidneys of Col4a3-/- mice; experiment: Treatment study: renal mRNA expression by qPCR; assay type: in vivo, mouse; details: 20 mg/kg IP 2x/week from 6 weeks for 2.5 weeks
Protocol: as §1
Total RNA was extracted from snap-frozen kidney tissues using Trizol (Invitrogen) followed by RNeasy column (Qiagen) purification. cDNAs were synthesized with iScript™ cDNA synthesis kit (Bio-Rad) according to manufacturer's instructions. Gene expression analysis was performed on duplicate samples with either TaqMan (Applied Biosystems) or fast SYBR green (Qiagen) technology using StepOnePlus™ (Applied Biosystem) over 40 cycles. Expression data were normalized to GAPDH mRNA expression and fold change was calculated using 2^−ΔΔct method. The sequences of specific TaqMan probes and SYBR green primers are available upon request.

[6] = system: kidneys of Col4a3-/- mice; experiment: Treatment study: Western blot of kidney protein extracts; assay type: in vivo, mouse; details: 20 mg/kg IP 2x/week from 6 weeks for 2.5 weeks; vs IgG
Protocol: as §1
Western blot was carried out on total protein extracts from mouse kidney tissues. Kidneys were lysed in radioimmunoprecipitation assay (RIPA) buffer containing protease and phosphatase inhibitors (Thermo Scientifics), followed by centrifugation to clear the lysate. Protein concentrations were determined by Bradford assay (Bio-Rad). Protein lysates were separated by SDS-PAGE, transferred to PVDF membrane, and subjected to immunoblot analysis for various antibodies as outlined in the main text, figures, or and/or figure legends. Proteins were visualized using the ECL detection system (Pierce) with the appropriate secondary antibodies: anti-rabbit HRP or antimouse HRP.

Col4a3-/- mice [7] = experiment: Treatment study in Col4a3-/- mice: body weight and kidney weight; assay type: in vivo, mouse
Protocol: as §1

[8] = system: mice homozygous for the Col4a3tm1Dec mutation; experiment: Survival in mouse model of Alport syndrome (Example 1); assay type: in vivo; details: 20 mg/kg intraperitoneal, biweekly, from 6 weeks of age until mortality
Text: 129-Col4a3^tm1Dec/J mice were obtained from The Jackson Laboratory (Stock No:002908; COL4A3 KO). The mice comprise the Co/4a3^tm1Dec mutation described e.g. in Cosgrove et al., Genes Dev. (1996) 10:2981-2992, which is hereby incorporated by reference in its entirety. 129-Col4a3^tm1Dec/J mice comprise a targeted mutation to Col4a3, resulting in progressive glomerulonephritis with microhematuria and proteinuria, and mice homozygous for the mutation typically die at about 8.5 weeks.
From 6 weeks of age, mice homozygous for the Co/4a3^tm1Dec mutation were administered biweekly by intraperitoneal injection of 20 mg/kg of Enx203, or an isotype-matched control antibody, until mortality.

B1: IL-11: pleiotropic cytokine, member of the IL-6 family of cytokines (protein)
chain: PGPPAGSPRVSSDPRADLDSAVLLTRSLLADTRQLAAQMRDKFPADGDHSLDSLPTLAMSAGTLGSLQLPGVLTRLRVDLMSYLRHVQWLRRAGGPSLKTLEPELGALQARLERLLRRLQLLMSRLALPQAAPDQPVIPLGPPASAWGSIRAAHAILGGLHLTLDWAVRGLLLLKTRL
Question: For B1, which Kd (IL-11Rα) is on record?
Answer: Its Kd is ~0.022 µM.

B2: X203: mouse anti-mouse IL-11 IgG, neutralizing IL11 antibody; VH SEQ ID NO:22, VL SEQ ID NO:23 (antibody, V domains shown)
VH: EVQLQQSGPELVKPGASVKIPCKASGYTFTDYNMDWVKQSHGKSLEWIGDINPHNGGPIYNQKFTGKATLTVDKSSSTAYMELRSLTSEDTAVYYCARGELGHWYFDVWGTGTTVTVSS
VL: DIVLTQSPASLAVSLGQRATISCRASKSVSTSGYSYIHWYQQKPGQPPKLLIYLASNLDSGVPARFSGSGSGTDFTLNIHPVEEEDAATYYCQHSRDLPPTFGGGTKLEIK
Question: With B2 as the molecule, how does the “Wilms' Tumor 1 (WT1) staining” value [1] read?
Answer: The value was “greater staining”.

Question: What about the “number of WT1-positive cells (podocytes)” value ([1]; blinded quantification) of the same molecule?
Answer: Its value is “restored towards normal; also recorded: significant (P=0.0002) restoration”.

Question: What about the “kidney fibrosis by biochemical and histological assessments” value [2] of the same molecule?
Answer: The value was “significantly less”.

Question: And the “serum blood urea nitrogen (BUN)” value (Col4a3-/- mice [3])?
Answer: The value was “markedly lowered”.

Question: And the “serum creatinine (Cr)” value (Col4a3-/- mice [3])?
Answer: The value was “markedly lowered”.

Question: What about the “urinary albumin:creatinine ratio (ACR)” value (Col4a3-/- mice [3]) of the same molecule?
Answer: Its value is “markedly lowered”.

Question: And the median lifespan (Col4a3-/- mice [4]; IgG control 62.5 days, P=0.0015)?
Answer: Its median lifespan is 88.5 days.

Question: What about the “extension of median life span” value (Col4a3-/- mice [4]; vs IgG control) of the same molecule?
Answer: The value was 41.6%.

Question: And the “CC chemokine CcI2 mRNA” value ([5]; vs IgG)?
Answer: Its value is “diminished”.

Question: And the “CC chemokine CcI5 mRNA” value ([5]; vs IgG)?
Answer: Its value is “diminished”.

Question: What about the Tnfα expression ([5]; vs IgG) of the same molecule?
Answer: Its Tnfα expression is “reduced”.

Question: What about the “proinflammatory interleukin II1b mRNA” value ([5]; vs IgG) of the same molecule?
Answer: The value was “diminished”.

Question: And the “proinflammatory interleukin II6 mRNA” value ([5]; vs IgG)?
Answer: Its value is “diminished”.

Question: And the “renal level of Col1a1 gene expression” value ([5]; vs IgG)?
Answer: The value was “reduced”.

Question: What about the “renal level of Col1a2 gene expression” value ([5]; vs IgG) of the same molecule?
Answer: Its value is “reduced”.

Question: And the “renal level of Col3a1 gene expression” value ([5]; vs IgG)?
Answer: Its value is “reduced”.

Question: What about the “renal level of Fn gene expression” value ([5]; vs IgG) of the same molecule?
Answer: The value was “reduced”.

Question: And the “renal level of II11 gene expression” value ([5]; vs IgG)?
Answer: The value was “reduced”.

Question: And the “renal level of Tgfb1 gene expression” value ([5]; vs IgG)?
Answer: The value was “reduced”.

Question: What about the “renal level of myofibroblast marker Acta2 gene expression” value ([5]; vs IgG) of the same molecule?
Answer: The value was “reduced”.

Question: What about the “tubule damage indicator Kim1 mRNA” value ([5]; vs IgG and wild-type) of the same molecule?
Answer: The value was “restored”.

Question: What about the “tubule damage indicator Ngal mRNA” value ([5]; vs IgG and wild-type) of the same molecule?
Answer: Its value is “restored”.

Question: What about the “Caspase 3 activation” value [6] of the same molecule?
Answer: Its value is “reduced”.

Question: What about the “ERK phosphorylation in kidneys” value [6] of the same molecule?
Answer: Its value is “largely diminished”.

Question: And the “Podocin protein level (immunoblotting)” value [6]?
Answer: The value was “restored towards normal”.

Question: And the “STAT3 phosphorylation in kidneys” value [6]?
Answer: Its value is “largely diminished”.

Question: And the “Wilms' Tumor 1 protein level (immunoblotting)” value [6]?
Answer: The value was “restored towards normal; also recorded: Preservation of podocytes”.

Question: What about the “alpha-smooth muscle actin (αSMA) protein level (reduction seen on transcript)” value [6] of the same molecule?
Answer: Its value is “confirmed at the protein level”.

Question: And the “degree of TGFβ upregulation in the kidneys” value [6]?
Answer: Its value is “significantly reduced”.

Question: And the “fibronectin protein level (reduction seen on transcript)” value [6]?
Answer: Its value is “confirmed at the protein level”.

Question: What about the kidney mass (Col4a3-/- mice [7]; 20 mg/kg IP 2x/week from 6 weeks for 2.5 weeks, vs IgG) of the same molecule?
Answer: Its kidney mass is “preserved”.

Question: And the “total body weight loss, as percentage of starting body weight” value (Col4a3-/- mice [7]; 20 mg/kg IP 2x/week from 6 weeks of age for 2.5 weeks, end of study, IgG control 30%, P=0.0003)?
Answer: The value was 17%.

Question: What about the “increase in survival relative to mice treated with isotype-matched control antibody” value [8] of the same molecule?
Answer: The value was “up to 40%”.
